The text below walks through data of PMC11145253 (Proceedings of the National Academy of Sciences of the …, 2024).

For this assay, the target named is T1, CTDNEP1ΔAH as it stands in the crystallized CTDNEP1ΔAH-linker-sNEP1R1-His6 fusion (human, UniProt O95476 40-244).
T1 sequence (looked up): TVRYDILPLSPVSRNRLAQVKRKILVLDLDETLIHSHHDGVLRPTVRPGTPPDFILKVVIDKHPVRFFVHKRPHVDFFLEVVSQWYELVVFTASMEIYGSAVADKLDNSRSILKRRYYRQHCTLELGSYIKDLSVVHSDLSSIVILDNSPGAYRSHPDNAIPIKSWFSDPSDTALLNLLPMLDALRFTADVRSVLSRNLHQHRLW
Kind of assay: crystal structure.

Regarding GSAKGSES [linker peptide of the CTDNEP1ΔAH-linker-sNEP1R1-His6 fusion], the binding result was “binds”.
